Measured values: patent publication US20250076311A1 (Chugai, published 2025)
Residue numbers refer to the chain shown, from its start. Names and notes keep the numbering of the source. Values belong to the binder of their own block, whether it stands above or below them.

Legend:
[1] = molecular target: T1, soluble mouse FcγRII, His-tagged (mouse, UniProt P08101 30-210, limits assumed); assay: SPR, mouse FcγRII captured via His-tag, antigen-antibody complex injected, pH 7.4, 25 C
T1 construct: Captured on the chip through an anti-His antibody
T1 sequence (looked up): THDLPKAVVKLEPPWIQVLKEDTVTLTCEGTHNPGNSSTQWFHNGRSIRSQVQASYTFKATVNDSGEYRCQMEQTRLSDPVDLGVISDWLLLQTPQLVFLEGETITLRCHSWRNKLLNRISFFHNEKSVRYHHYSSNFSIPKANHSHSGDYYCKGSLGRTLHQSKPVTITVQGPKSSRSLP
Procedure, shortened: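 Biacore T200; His-tagged soluble FcγRII captured on an anti-His antibody chip, then antibody–antigen complexes injected. Running buffer 20 mM ACES, 150 mM NaCl, 1.2 mM CaCl₂, 0.05% Tween 20, pH 7.4; regeneration with 10 mM glycine-HCl pH 1.5; all at 25° C.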

[2] = molecular target: T2, human FcγRIIb constitutively expressed on MDCK cells (human, UniProt P31994 43-310); assay: cell-based or functional assay
T2 sequence (looked up): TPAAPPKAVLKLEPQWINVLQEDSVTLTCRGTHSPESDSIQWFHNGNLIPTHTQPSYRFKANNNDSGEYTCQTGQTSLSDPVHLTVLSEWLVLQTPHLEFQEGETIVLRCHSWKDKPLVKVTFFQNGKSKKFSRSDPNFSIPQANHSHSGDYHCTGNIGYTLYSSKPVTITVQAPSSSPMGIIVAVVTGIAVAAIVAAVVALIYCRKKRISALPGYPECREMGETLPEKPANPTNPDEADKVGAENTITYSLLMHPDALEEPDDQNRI

[3] = molecular target: T3, human FcγRIIaR extracellular domain with C-terminal His-tag (human, UniProt P12318 34-217); assay: SPR, antibody captured, FcγR analyte
T3 construct: also called human FcgRIIaR; FcγRIIa (type R)
T3 chain: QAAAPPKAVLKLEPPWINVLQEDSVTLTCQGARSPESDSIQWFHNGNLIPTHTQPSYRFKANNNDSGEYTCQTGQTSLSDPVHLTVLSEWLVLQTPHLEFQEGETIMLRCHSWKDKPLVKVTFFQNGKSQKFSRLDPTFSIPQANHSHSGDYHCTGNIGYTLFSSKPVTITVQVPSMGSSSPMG

[4] = molecular target: T4, cynomolgus monkey FcγRIIIaS extracellular domain with C-terminal His-tag (cynomolgus monkey, UniProt Q8SPW2 21-206 at identity 1.00)); assay: SPR, antibody captured, FcγR analyte
T4 construct: also called cyno FcgRIIIaS; cynoFcγRIIIaS
T4 chain: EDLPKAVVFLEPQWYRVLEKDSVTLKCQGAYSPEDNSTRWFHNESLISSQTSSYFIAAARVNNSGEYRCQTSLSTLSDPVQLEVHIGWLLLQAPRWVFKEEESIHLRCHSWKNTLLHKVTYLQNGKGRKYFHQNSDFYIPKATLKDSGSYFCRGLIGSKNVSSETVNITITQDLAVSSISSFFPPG

[5] = molecular target: T5, human FcγRIIIaV extracellular domain with C-terminal His-tag (human, UniProt P08637 17-208); assay: SPR, KD(SG1)/KD(variant)
T5 construct: also called human FcgRIIIaV
T5 sequence (P08637 17-208 F176V): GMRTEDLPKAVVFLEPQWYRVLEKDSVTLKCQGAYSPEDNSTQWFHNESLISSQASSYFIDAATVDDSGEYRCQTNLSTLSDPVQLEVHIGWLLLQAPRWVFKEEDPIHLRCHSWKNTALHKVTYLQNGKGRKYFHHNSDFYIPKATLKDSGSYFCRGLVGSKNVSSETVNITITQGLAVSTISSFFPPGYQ

[6] = molecular target: T6, human FcγRIIb extracellular domain with C-terminal His-tag (human, UniProt P31994 43-217); assay: SPR, KD(SG1)/KD(variant)
T6 construct: also called human FcgRIIb
T6 sequence: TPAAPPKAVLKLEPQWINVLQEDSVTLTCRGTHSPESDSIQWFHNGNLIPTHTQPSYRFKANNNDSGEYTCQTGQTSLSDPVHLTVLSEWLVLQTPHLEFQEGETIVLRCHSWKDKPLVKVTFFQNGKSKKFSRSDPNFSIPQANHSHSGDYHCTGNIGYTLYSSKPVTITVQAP

[7] = molecular target: T7, cynomolgus monkey FcγRIIIaS extracellular domain with C-terminal His-tag (cynomolgus monkey, UniProt Q8SPW2 21-206 at identity 1.00)); assay: SPR (Biacore), KD of SG1 divided by KD of variant
T7 construct: also called cyno FcgRIIIaS; cynoFcγRIIIaS
T7 chain: T4 chain

[8] = molecular target: T8, human FcγRIIaR extracellular domain with C-terminal His-tag (human, UniProt P12318 34-217); assay: SPR (Biacore), KD of SG1 divided by KD of variant
T8 construct: also called human FcgRIIaR; FcγRIIa (type R)
T8 chain: T3 chain

[9] = molecular target: T9, cynomolgus monkey FcγRIIb extracellular domain with C-terminal His-tag (cynomolgus monkey); assay: SPR (Biacore), KD of SG1 divided by KD of variant
T9 construct: also called cyno FcgRIIb; cynoFcγRIIb
T9 chain: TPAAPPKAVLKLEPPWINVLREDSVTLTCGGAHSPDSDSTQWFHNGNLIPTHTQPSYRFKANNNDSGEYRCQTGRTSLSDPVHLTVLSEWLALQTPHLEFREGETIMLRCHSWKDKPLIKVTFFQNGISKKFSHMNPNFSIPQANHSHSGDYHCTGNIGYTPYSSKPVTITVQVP

[10] = molecular target: T10, human FcγRIIIaV extracellular domain with C-terminal His-tag (human, UniProt P08637 17-208); assay: SPR (Biacore), KD of SG1 divided by KD of variant
T10 construct: also called human FcgRIIIaV
T10 sequence (P08637 17-208 F176V): as the sequence (P08637 17-208 F176V) above

[11] = molecular target: T4, cynomolgus monkey FcγRIIIaS …; assay: SPR, KD(SG1)/KD(variant)
[12] = molecular target: T11, cynomolgus monkey FcγRIIb extracellular domain with C-terminal His-tag (cynomolgus monkey); assay: SPR, KD(SG1)/KD(variant)
T11 construct: also called cyno FcgRIIb; cynoFcγRIIb
T11 chain: T9 chain

[13] = molecular target: T5, human FcγRIIIaV extracellular domain …; assay: SPR, KD(SG1)/KD(variant); remark: listed apart in the source
Protocol: (§1) The kinetic analysis of interactions between these antibodies and FcγR was carried out using BIACORE® T200 or BIACORE® 4000 (GE Healthcare). HBS-EP+ (GE Healthcare) was used as the running buffer, and the measurement temperature was set to 25° C. […] After the measurement, the antibody captured on the chip was washed off by allowing reaction with 10 mM glycine-HCl, pH1.5 and 25 mM NaOH so that the chip was regenerated and used repeatedly. The sensorgrams obtained as measurement results were analyzed by the 1:1 Langmuir binding model using the BIACORE® Evaluation Software to calculate the binding rate constant ka (L/mol/s) and dissociation rate constant kd (1/s), and the dissociation constant KD (mol/L) was calculated from these values. […] Regarding such interactions, KD values were calculated using the following 1:1 binding model described in BIACORE® T100 Software Handbook BR1006-48 Edition AE.

[14] = molecular target: T4, cynomolgus monkey FcγRIIIaS …; assay: SPR, KD(SG1)/KD(variant)
Protocol: as §1

[15] = molecular target: T12, cynomolgus monkey FcγRIIa1 extracellular domain with C-terminal His-tag (cynomolgus monkey); assay: SPR, KD(SG1)/KD(variant)
T12 construct: also called cyno FcgRIIa1; cynoFcγRIIa1
T12 chain: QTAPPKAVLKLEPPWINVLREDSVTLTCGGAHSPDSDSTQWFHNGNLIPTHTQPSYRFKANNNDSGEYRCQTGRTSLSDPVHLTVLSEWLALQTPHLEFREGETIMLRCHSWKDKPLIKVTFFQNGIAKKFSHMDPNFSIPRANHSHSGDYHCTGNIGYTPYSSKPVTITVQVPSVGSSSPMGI
Protocol: as §1

[16] = molecular target: T13, cynomolgus monkey FcγRIIa2 extracellular domain with C-terminal His-tag (cynomolgus monkey); assay: SPR, KD(SG1)/KD(variant)
T13 construct: also called cyno FcgRIIa2; cynoFcγRIIa2
T13 chain: T12 chain with P95T, T121A, I127K, A128S, K130N, D135N, R142Q
Protocol: as §1

[17] = molecular target: T3, human FcγRIIaR extracellular domain …; assay: SPR, KD(SG1)/KD(variant)

B1: MS1032LO06-SG1 (antibody, human IgG1, kappa)
heavy: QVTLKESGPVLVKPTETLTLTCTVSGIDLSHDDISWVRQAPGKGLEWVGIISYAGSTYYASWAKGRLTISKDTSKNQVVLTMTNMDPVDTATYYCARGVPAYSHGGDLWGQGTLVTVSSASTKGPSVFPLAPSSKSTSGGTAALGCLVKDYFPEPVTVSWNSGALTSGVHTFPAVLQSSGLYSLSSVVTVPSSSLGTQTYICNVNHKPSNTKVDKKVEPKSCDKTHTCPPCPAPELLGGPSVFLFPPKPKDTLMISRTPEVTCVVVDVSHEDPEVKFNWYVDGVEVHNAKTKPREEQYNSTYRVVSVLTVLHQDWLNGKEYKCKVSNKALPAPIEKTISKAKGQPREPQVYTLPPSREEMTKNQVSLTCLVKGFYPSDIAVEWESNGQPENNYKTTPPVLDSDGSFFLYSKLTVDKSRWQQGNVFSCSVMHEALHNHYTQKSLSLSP
light: DIVMTQSPATLSLSPGERATLSCTSSQSVYHANWLSWFQQKPGQPPKLLIYWASTLAYGVPSRFSGSGSGTDFTLTISSLQPEDAATYYCAGGYGGGRYAFGQGTKVEIKRTVAAPSVFIFPPSDEQLKSGTASVVCLLNNFYPREAKVQWKVDNALQSGNSQESVTEQDSKDSTYSLSSTLTLSKADYEKHKVYACEVTHQGLSSPVTKSFNRGEC
notes: also called M103205H795-SG1; copies: 2 + 2
- biacore IC binding (relative, SG1 = 1.00) [1]: 1 relative to SG1
- celluar uptake (labelled human latent myostatin taken up as antigen-antibody complex) [2]: 1 relative to SG1 = 1.00
- Kd [3]: 10 µM
- Kd [4]: 0.26 µM

B2: M103205H795-MY531/M103202L889-SK1 (antibody, human IgG1, kappa, name in EU numbering)
heavy: QVTLKESGPVLVKPTETLTLTCTVSGIDLSHDDISWVRQAPGKGLEWVGIISYAGSTYYASWAKGRLTISKDTSKNQVVLTMTNMDPVDTATYYCARGVPAYSHGGDLWGQGTLVTVSSASTKGPSVFPLAPSSKSTSGGTAALGCLVKDYFPEPVTVSWNSGALTSGVHTFPAVLQSSGLYSLSSVVTVPSSSLGTQTYICNVNHKPSNTKVDKKVEPKSCDKTHTCPPCPAPEWLTGPSVFLFPPKPKDTLMISRTPEVTCVVVDVSDEDPEVKFNWYVDGVEVHNAKTKPREEQYNSTYRVVSVLTVLHQDWLNGKEYKCKVSNTALPKPIEKTISKAKGQPREPQVYTLPPSREEMTKNQVSLTCLVKGFYPSDIAVEWESNGQPENNYKTTPPVLDSDGSFFLYSKLTVDKSRWQQGNVFSCSVMHEALHNHYTQKSLSLSP
light: B1 light
notes: copies: 2 + 2
- KD fold (SG1 = 1) [5]: 0.28 fold
- KD fold (SG1 = 1) [6]: 3.1 fold

B3: M103205H795-MY514 / M103202L889-SK1 (antibody)
heavy: B2 heavy with W236L, S241V, S300L, T328K
light: B1 light
notes: 'S258L' copied as printed, probably S298L
- KD fold (SG1 = 1) [7]: 0.05 fold
- KD fold (SG1 = 1) [8]: 6.9 fold
- KD fold (SG1 = 1) [9]: 2.6 fold
- KD fold (SG1 = 1) [10]: 0.09 fold

The remaining lines, values ahead:

- KD fold (SG1 = 1) [11]: 0.33 fold
- KD fold (SG1 = 1) [6]: 4.8 fold
- KD fold (SG1 = 1) [12]: 7.7 fold
B4: M103205H795-MY533/M103202L889-SK1 (antibody, human IgG1, kappa, name in EU numbering)
heavy: B2 heavy with S241V, Q297L, T328K
light: B1 light
notes: copies: 2 + 2

- KD fold (SG1 = 1) [13]: 0.07 fold
- KD fold (SG1 = 1) [14]: 0.06 fold
- KD fold (SG1 = 1) [15]: 2.3 fold
- KD fold (SG1 = 1) [16]: 2 fold
- Kd [3]: 22 µM
- Kd [4]: 4.3 µM
B5: MS1032LO06-PK57 (antibody, human IgG1, kappa)
heavy: B2 heavy with W236L, T238N, Q313R, T328K, N386R, D415R
light: B1 light
notes: MY201 with Q311R/N384R/D413R; also called MS103205H795-PK57; M103205H795-MY57; copies: 2 + 2

- KD fold (SG1 = 1) [5]: 0.15 fold
- KD fold (SG1 = 1) [17]: 5.8 fold
- KD fold (SG1 = 1) [11]: 0.22 fold
B6: M103205H795-MY534/M103202L889-SK1 (antibody, human IgG1, kappa, name in EU numbering)
heavy: B2 heavy with W236L, S241V, Q297L, T328K
light: B1 light
notes: copies: 2 + 2

- KD fold (SG1 = 1) [5]: 0.48 fold
- KD fold (SG1 = 1) [17]: 5.8 fold
B7: M103205H795-MY532/M103202L889-SK1 (antibody, human IgG1, kappa, name in EU numbering)
heavy: B2 heavy with S241V, T328K
light: B1 light
notes: copies: 2 + 2

- KD fold (SG1 = 1) [11]: 0.24 fold
- KD fold (SG1 = 1) [12]: 5.6 fold
B8: M103205H795-MY537/M103202L889-SK1 (antibody, human IgG1, kappa, name in EU numbering)
heavy: B2 heavy with A233G, S241V, Q297L, T328K
light: B1 light
notes: copies: 2 + 2
